Measured values published in article PMC2112147.

Legend:
[1] = target: rabbit skeletal muscle actin (rabbit) (UniProt P68135); assay: co-sedimentation; details: scale: G-actin units per actinogelin dimeric unit
[2] = target: actinogelin (mouse (endogenous in Ehrlich tumor cells)) (UniProt Q7TPR4); assay: AUC
[3] = target: actinogelin (mouse (endogenous in Ehrlich tumor cells)) (UniProt Q7TPR4); assay: cross-linking

actinogelin, sequence (Q7TPR4 whole entry): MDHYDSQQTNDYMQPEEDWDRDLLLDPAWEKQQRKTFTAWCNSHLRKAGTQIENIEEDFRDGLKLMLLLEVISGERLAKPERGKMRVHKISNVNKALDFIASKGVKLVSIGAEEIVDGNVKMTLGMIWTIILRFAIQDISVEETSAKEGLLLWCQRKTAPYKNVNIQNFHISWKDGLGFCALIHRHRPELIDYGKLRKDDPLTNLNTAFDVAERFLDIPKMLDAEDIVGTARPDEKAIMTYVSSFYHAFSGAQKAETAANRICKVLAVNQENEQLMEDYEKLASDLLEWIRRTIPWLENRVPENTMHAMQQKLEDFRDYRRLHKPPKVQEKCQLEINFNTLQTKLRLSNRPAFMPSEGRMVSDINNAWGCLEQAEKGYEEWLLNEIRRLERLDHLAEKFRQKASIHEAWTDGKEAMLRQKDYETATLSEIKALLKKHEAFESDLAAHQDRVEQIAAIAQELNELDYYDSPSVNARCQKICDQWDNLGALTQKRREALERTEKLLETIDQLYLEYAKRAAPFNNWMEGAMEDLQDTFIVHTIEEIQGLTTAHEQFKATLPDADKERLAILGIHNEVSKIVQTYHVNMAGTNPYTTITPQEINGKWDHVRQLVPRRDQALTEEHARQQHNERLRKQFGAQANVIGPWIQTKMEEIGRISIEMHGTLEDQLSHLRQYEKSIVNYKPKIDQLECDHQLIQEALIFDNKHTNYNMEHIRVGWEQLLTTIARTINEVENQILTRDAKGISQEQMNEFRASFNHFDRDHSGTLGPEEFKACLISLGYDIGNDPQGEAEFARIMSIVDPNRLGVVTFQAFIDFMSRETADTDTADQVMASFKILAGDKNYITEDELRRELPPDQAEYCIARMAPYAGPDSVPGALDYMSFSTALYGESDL

actinogelin (from UniProt Q7TPR4 1-892) (natural protein)
stoichiometry N [1]: 10 to 12
stoichiometry N [2]: 2 subunits
stoichiometry N [3]: 2 subunits
